Reference: publication PMC12749841 (Nature Communications, 2025)

Target: importin β (human, UniProt Q14974 1-876)
Experiment: cryo-EM structure

Sequence of importin β (Q14974 whole entry): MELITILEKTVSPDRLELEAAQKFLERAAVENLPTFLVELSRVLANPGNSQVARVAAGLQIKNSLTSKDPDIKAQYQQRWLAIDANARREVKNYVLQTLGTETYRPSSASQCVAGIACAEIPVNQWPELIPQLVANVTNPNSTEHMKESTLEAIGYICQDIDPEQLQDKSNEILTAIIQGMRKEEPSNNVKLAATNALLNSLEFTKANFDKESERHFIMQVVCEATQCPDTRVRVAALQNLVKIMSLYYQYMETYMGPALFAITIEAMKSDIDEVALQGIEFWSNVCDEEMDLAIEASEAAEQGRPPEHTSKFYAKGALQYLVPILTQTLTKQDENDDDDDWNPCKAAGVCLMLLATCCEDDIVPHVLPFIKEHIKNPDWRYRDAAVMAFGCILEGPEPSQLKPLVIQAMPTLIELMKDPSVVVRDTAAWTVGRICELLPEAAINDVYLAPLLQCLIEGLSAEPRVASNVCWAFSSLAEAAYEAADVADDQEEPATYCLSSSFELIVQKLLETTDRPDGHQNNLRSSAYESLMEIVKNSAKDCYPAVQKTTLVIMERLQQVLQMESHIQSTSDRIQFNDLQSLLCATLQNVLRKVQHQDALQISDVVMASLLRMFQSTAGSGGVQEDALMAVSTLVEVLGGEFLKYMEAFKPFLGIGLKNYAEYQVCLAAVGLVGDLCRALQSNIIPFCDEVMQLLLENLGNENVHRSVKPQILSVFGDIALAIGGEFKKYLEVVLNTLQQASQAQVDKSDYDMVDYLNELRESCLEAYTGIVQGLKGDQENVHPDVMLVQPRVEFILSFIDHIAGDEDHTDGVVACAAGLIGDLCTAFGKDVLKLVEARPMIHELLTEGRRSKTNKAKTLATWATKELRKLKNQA

B1: importin α1 IBB domain (res 1–65) fused to 6xHis Maltose Binding Protein (domain or fragment)
chain: not shown
binding result: binds
